Measurements: the supplement of paper PMC9170038

System: MS2 coat protein
Test: apparent KD of MS2 coat protein; designed switch direction (-1 OFF switch, 1 ON switch): 1; higher = weaker reporter binding
Method in brief: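 Each step of the titration lasted 0.8–1.5 h at the lowest concentration and 10–20 min at the highest. The protein, SNAP-549-labelled MS2 coat protein, went from 0.7 or 1.5 nM doubling to 3 µM over RNA switches transcribed on Illumina chips by stalled E. coli RNA polymerase. Normalised cluster fluorescence was curve-fitted, and the per-design median over clusters is given as apparent KD.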

[1] = input ligand: microRNA oligo, concentration not stated
[2] = Eterna round: R95, input ligand: FMN 200 uM
[3] = Eterna round: R95, input ligand: microRNA oligo, concentration not stated
[4] = Eterna round: R95, input ligand: none

Sequence	apparent KD of MS2 coat protein (input ligand: FMN 200 uM) [nM]	apparent KD of MS2 coat protein [1] [nM]	apparent KD of MS2 coat protein (input ligand: none) [nM]	apparent KD of MS2 coat protein [2] [nM]	apparent KD of MS2 coat protein [3] [nM]	apparent KD of MS2 coat protein [4] [nM]
GGUACAAAUACAGGAUAUGCUAUCCUUUGGGUAGCAGAAGGGUGGUAACAUGAGGAUCACCCAUGUGUGCCAGGGCGUGAGCCC [JL SSNG1 1.98] (Eterna round: R96, puzzle: Same State NG 1)	387	206	657			
GGUAGGUUACUACCAAACAUGAGGAUCACCCAUGUAAGUGGGAAGGAUAUGGUACCUAUUUGGUACCAGAAGGUCCAAUUAAUU [Fiskers NG3ss - 3] (Eterna round: R96, puzzle: Same State NG 3)	228	111	720			
GGUAGGUUACUACCAAACAUGAGGAUCACCCAUGUAAGUGGGAAGGAUAUGGUACCUUUUAGGUACCAGAAGGUCCAUAUAAUU [JL Fiskers NG3ss - 2 mod 6] (Eterna round: R96, puzzle: Same State NG 3)	177	2450	3220			
GGUAGGUUACUACCAACACAUGAGGAUCACCCAUGUUUUGGGAAGGAUAUGGUACCUAUUUGGUACCAGAAGGUCCAGUUAAUG [salish99_SSNG3_r04_701] (Eterna round: R96, puzzle: Same State NG 3)	87	161	122			
GGUAGGUUACUACCAACACAUGAGGAUCACCCAUGUUUUGGGAAGGAUAUGGUACCUAUUUGGUACCAGAAGGUCCAGUUAAUU [Fiskers NG3ss - 17] (Eterna round: R96, puzzle: Same State NG 3)	47.4	66.6	69.5			
GGUAGGUUACUACCAAUACAUGAGGAUCACCCAUGUUAUCAUGAGGAUAUGGUACCUAUUUGGUACCAGAAGGCAUGUAUAAUU [Fiskers NG3ss - 19] (Eterna round: R96, puzzle: Same State NG 3)	43.6	62.6	60.5			
GGUAGGUUACUACCAAUCUACAUGAGGAUCACCCAUGUGUAGGAGGAUAUGGUACCUAUUUGGUACCAGAAGGCCUAAUUAAUU [Fiskers NG3ss - 9] (Eterna round: R96, puzzle: Same State NG 3)	117	96.7	111			
GGUAUCGGCACAGGAUAUGCUAUCCUUUGGGUAGCAGAAGGGUGGACAUGAGGAUCACCCAUGUAGGUGCCAGGGCGUGAGCCC [JL SSNG1 1.87] (Eterna round: R96, puzzle: Same State NG 1)	2490	26.3	3550			
GGUCCAGCCUGAGCUGGACAAGAGCAUGUACAUGAGGAUCACCCAUGUCAUGUACAAGCUUUUUGCUCGUCUUAAAA [JL mod - D87 - 2] (puzzle: Sensor for hsa-mir-208a)				433	14.5	540
GGUCCAGCGAGAGCUGGACAAAAGCAUGUACAUGAGGAUCACCCAUGUCAUGUACAAGCUUUUUGCUCGUCUUAAAA [Mat - Sensor - JL mod - D88] (Eterna round: R96, puzzle: Sensor for hsa-mir-208a)	556	12.9	486			
GGUCCAUCAUGAGGAUAUGGCACCUUAUUGGUGCCAGAAGGCAUGUAAAUUAUAAUAAAACAUGAGGAUCACCCAUGUUGGACC [Eli NG1ss - 97] (Eterna round: R96, puzzle: Same State NG 1)	857	19.5	78.4			
GGUCGGAACCACAUGAGGAUCACCCAUGUUCCGGAAACGGCGCAGGAUAUCUGUCCGAAAAGGUCAGAGAAGGGUGAACCGACC [Fiskers NG3ss - 78] (Eterna round: R96, puzzle: Same State NG 3)	462	314	236			
GGUCGGACUCACAUGAGGAUCACCCAUGUUGCGGAAACGCGACAGGAUAUCUGUCCGAAAAGGUCAGAGAAGGGUCAACCGACC [Fiskers NG3ss - 58] (Eterna round: R96, puzzle: Same State NG 3)	853	431	504			
GGUGCAAUUAACGCCUACAUGAGGAUCACCCAUGUAUGUAGGCAGGAUAUCGUUUGCAAAGCAAACGAGAAGGGCUAUAGUACC [Mat - Same State NG 3 - JL Mod - D43] (Eterna round: R96, puzzle: Same State NG 3)	66.9	256	188			
GGUGCGAAUAAAGCCUACAUGAGGAUCACCCAUGUAUGUAGGCAGGAUAUCGUAUGCAAAGCAUACGAGAAGGGCUGUCGCACC [Mat - Same State NG 3 - JL Mod - D47] (Eterna round: R96, puzzle: Same State NG 3)	30.1	56.9	85.8			
GGUGGGUUACUACCAACACAUGAGGAUCACCCAUGUUUUGGGAAGGAUAUGGUACCUAUUUGGUACCAGAAGGUCCAGUUGGUG [salish99_SSNG3_r04_703] (Eterna round: R96, puzzle: Same State NG 3)	49.8	79.8	125			
GGUUUAGUCAGGUGCAGUUGCACCUGAAAACAUGAGGAUCACCCAUGUUUGGGACAAGCUUUGCUCCUCGUCUUGCA [Orinen] (puzzle: Sensor for hsa-mir-208a)				341	70.6	545
GUAAAACAUGAGGAUCACCCAUGUAAUAAUAUGGGAGGAUAUGCGAAUUUAAUUAUUUAAGCAGAAGGCCUAAAUG [Mat - Same State 1 - D99] (puzzle: Same State 1)				21.2	172	149
GUAAUAAUGUAAGGAUAUACAUGAGGAUUUCUCGUAGAAGGUACAAGACAUGAGGAUCACCCAUGUGUCGCUCAGAAGAGCGUA [Mat - Same State NG 1 - JL mod - D16] (Eterna round: R96, puzzle: Same State NG 1)	279	158	463			
GUAAUCGUUAUAGGAUAUCAUGAGGAUUACCCAUGAGAAGGGUGAUCCCGAUCCAUAUUCAGAAAAUGAAUGUGGAUAGAUUGC [Omei NG1 A] (Eterna round: R96, puzzle: Same State NG 1)	46.8	20.6	55.4			
GUACAGAUCAGAGGAUAUCACGUCGAUUAGACGUGAGAAGGCUGAUCACACAUGAAUAUUAGUACAUGAGGAUCACCCAUGUAC [SSNG1/15-A2] (Eterna round: R96, puzzle: Same State NG 1)	14	12.5	16.7			
GUAGCAUACCGAGGAUAUUCAAACCGGAAACGGACAUGAGGAUCACCCAUGUGGCGAAAGCCUUGGGAGAAGGCGGAAUGCUAC [Xeonanis - 20 Mod76] (Eterna round: R96, puzzle: Same State NG 2)	6.08	21.7	19.1			
GUAGCAUACCGAGGAUAUUCAUAUUAUACAUGAGGAUCACCCAUGUUAGGCCGAUUACGGCCUUGGGAGAAGGCGGAAUGCUAC [Xeonanis - 20 Mod20] (Eterna round: R96, puzzle: Same State NG 2)	21.8	53.3	75			
GUGCUCGUGUAAGGAUAUGCAGCCGUUUCGGCUGCAGAAGGUACUAUAAUACAUGAGGAUCACCCAUGUCUCUUUUGUUUGGUG [salish99_SSNG1_r04_907] (Eterna round: R96, puzzle: Same State NG 1)	234	111	222			
GUGCUCGUGUGAGGAUAUGCCGCCGUUUCGGCUGCAGAAGGUGCUACGUUACAUGAGGAUCACCCAUGUCUCUGUUGUUUCGUG [salish99_SSNG1_r04_943] (Eterna round: R96, puzzle: Same State NG 1)		17.9				
GUGGAGAAUUAAGGAUAUCGAGUCAAGAUGUUAAACAUGAGGAUCACCCAUGUGGGUUGCGGUAUCGAGAAGGUAAAUUACGGG [salish99_SSNG2_r04_504] (Eterna round: R96, puzzle: Same State NG 2)	28.3	25.1	34.1			
GUGGAGAAUUAAGGAUAUUGAAUACAUAUGUUUAACAUGAGGAUCACCCAUGUGGGUUGCGGUAUCGAGAAGGUAAAUUACUGG [salish99_SSNG2_r04_033] (Eterna round: R96, puzzle: Same State NG 2)	126	74.3	110			
GUGGAGGGUUGAGGAUAUUGAUUACAUAUGUUUAACAUGAGGAUCACCCAUGUGGGUUGCGGUUUCGAGAAGGUAGGUUGCUGG [salish99_SSNG2_r04_041] (Eterna round: R96, puzzle: Same State NG 2)	196	79.5	132			
GUGGCGGGUUGAGGAUAUUGGUUGCCGCUGUUUUACAUGAGGAUCACCCAUGUGGGUUGCGGUUUCGAGAAGGGAGGUUGCUGG [salish99_SSNG2_r04_055] (Eterna round: R96, puzzle: Same State NG 2)	14.2	11.7	17.6			
